# T1: human parechovirus 3 (HPeV3) isolate A308/99 virion (Human parechovirus 3, isolate A308/99, strain)
# T1 chain 1: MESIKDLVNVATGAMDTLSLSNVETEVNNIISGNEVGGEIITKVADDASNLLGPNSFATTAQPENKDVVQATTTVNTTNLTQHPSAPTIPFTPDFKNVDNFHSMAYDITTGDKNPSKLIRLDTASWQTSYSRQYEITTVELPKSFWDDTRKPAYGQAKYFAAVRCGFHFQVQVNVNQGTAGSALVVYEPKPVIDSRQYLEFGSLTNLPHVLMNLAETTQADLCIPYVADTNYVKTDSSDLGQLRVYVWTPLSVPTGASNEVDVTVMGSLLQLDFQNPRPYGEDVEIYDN
# T1 chain 2: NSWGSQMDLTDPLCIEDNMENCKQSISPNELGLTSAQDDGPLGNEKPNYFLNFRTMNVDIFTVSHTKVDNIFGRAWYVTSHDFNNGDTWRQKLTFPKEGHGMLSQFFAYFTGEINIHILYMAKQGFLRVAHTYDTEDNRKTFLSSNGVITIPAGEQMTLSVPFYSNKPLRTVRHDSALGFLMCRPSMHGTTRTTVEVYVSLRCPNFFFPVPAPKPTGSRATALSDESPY
# T1 chain 3: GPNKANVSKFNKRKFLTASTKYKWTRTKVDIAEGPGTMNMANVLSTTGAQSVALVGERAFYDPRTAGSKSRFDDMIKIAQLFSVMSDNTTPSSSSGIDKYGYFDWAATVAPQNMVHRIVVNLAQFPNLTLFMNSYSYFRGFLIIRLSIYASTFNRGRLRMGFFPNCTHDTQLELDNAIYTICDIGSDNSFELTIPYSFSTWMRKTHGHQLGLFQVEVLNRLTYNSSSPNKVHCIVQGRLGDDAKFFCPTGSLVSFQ
# Target: T1, human parechovirus 3 (HPeV3) isolate …
# Assay: cryo-EM structure
binder,measurement,value
"Fab fragment of human monoclonal antibody AT12-015 (Fab, V domains shown) VH: EVQLLESGGGLVQPGGSLRLSCAASGFTFSSYAMSWVRQAPGKGLEWVSAISGGGDSRYYADSVKGRFTISRDNSKNTLYLQMNSLGAEDTALYYCAKRLGRVAEYYFDYWGQGTLVTVSP VL: DIQMTQSPSTLSASVGDRVTITCRTSQSISNWLAWYQQKPGKAPKLLIYQASTLENGVPSRFTGSGSGTEFSLTISSLQPDDFATYYCQQYNNYMALTFGGGTKVEIK",stoichiometry N,60 Fab per virion

# — paper doi:10.1101/410217 (bioRxiv, 2018)
